These results are taken from US20240148866A1 (DENALI THERAPEUTICS, published 2024).

Assay [1] addresses T1, apical domain of human transferrin receptor (hTfR^apical) (human, UniProt P02786 198-378).
T1 construct: also called apical domain of hTfR
Put plainly: SPR (Biacore T200), IgG:IDS captured on Protein A chip, hTfR apical domain injected, single-cycle kinetics. The method, then: (§1) The affinity of IgG:IDS for human transferrin receptor (hTfR) was determined by surface plasmon resonance on a Biacore™ T200 instrument using two methods, similar to previously described (Kariolis et al. 2020. Sci Transl Med 12(545):eaay1359). In Method 1, to evaluate monovalent TfR binding affinity, IgG:IDS was captured on a Protein A-coated Biacore™ Series S CM5 sensor chip and serial dilutions of the apical domain of hTfR (hTfR^apical) were injected over the captured sample. In Method 2, for evaluation of apparent hTfR binding affinity of IgG:IDS, biotinylated full-length hTfR was immobilized on a streptavidin-coated CM5 sensor chip, followed by injection of serial dilutions of IgG:IDS. For both methods, the single-cycle kinetics mode was used for sample injection (association time, 90 s; dissociation time, 600 s), and binding affinities were calculated using Biacore T200 Evaluation Software v3.0.

Assay [2] addresses T2, biotinylated full-length human transferrin receptor (hTfR) (human, UniProt P02786 89-760, limits assumed, biotinylated (site not stated)).
T2 construct: Printed as 'biotinylated full-length hTfR', immobilized on a streptavidin chip; also called full-length hTfR; full-length receptor
Put plainly: SPR (Biacore T200), biotinylated full-length hTfR on streptavidin chip, IgG:IDS injected, single-cycle kinetics; apparent (avid) affinity. The method, then: as §1
(SPR reads the build-up and loss of mass on a sensor chip optically.)

Assay [3] addresses T3, Fc fusion of the 9th domain of human cation independent mannose-6-phosphate receptor (ciM6PR; Uniprot P11717) (human, UniProt P11717 1225-1363, limits assumed).
T3 construct: domain: 9th domain; It was coated on ELISA plates at 1 ug/mL
Nature of the assay: ELISA: plate coated with the Fc fusion of ciM6PR domain 9, IgG:IDS titrated, detection with biotinylated anti-IDS antibody and streptavidin-HRP, A450. The method, then:
ELISA plates were coated with an Fc fusion of the 9th domain of human cation independent mannose-6-phosphate receptor (ciM6PR; Uniprot P11717) at 1 μg/mL in PBS overnight at 4° C. The following day, the plate was washed three times with wash buffer (PBS with 0.02% Tween-20) and blocking buffer (PBS with 0.02% Tween-20 and 5% BSA) was added to each well. Blocking was carried out for 1 hour at room temperature after which the plate was washed three times, and IgG:IDS was added to the first column of the plate at a concentration of 25 nM. A 3-fold serial dilution was performed across the plate. Primary incubation of the binding reactions was carried out for one hour at room temperature. After binding, the plate was washed three times, and binding was detected using biotinylated anti-IDS antibody diluted to 0.0625 μg/mL in sample buffer. The plate was incubated with a detection antibody for one hour at room temperature and then washed three times. Streptavidin-HRP, diluted 1:50,000 in sample buffer, was then added to each well. The plate was incubated for 30 minutes at room temperature and then washed three times. The ELISA was developed using TMB reagent. The ELISA plate was read on a HighRes BioTek Synergy plate reader, where the absorbance at 450 nm was recorded.
On the technique in general: In an ELISA, binding on a coated surface is turned into a signal by an enzyme label.

T1 sequence (P02786 198-378 limits assumed): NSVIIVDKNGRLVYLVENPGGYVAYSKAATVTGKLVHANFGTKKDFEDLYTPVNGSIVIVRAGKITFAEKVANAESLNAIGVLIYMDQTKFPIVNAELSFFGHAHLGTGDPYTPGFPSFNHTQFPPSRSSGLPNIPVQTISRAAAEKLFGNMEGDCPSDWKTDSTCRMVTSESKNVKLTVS
T3 sequence (P11717 1225-1363 limits assumed, one chain of several): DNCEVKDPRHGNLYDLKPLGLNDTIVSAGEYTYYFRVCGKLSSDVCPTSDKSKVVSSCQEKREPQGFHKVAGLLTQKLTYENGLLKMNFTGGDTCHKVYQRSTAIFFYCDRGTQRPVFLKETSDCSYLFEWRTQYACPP
T2 sequence (P02786 89-760 limits assumed): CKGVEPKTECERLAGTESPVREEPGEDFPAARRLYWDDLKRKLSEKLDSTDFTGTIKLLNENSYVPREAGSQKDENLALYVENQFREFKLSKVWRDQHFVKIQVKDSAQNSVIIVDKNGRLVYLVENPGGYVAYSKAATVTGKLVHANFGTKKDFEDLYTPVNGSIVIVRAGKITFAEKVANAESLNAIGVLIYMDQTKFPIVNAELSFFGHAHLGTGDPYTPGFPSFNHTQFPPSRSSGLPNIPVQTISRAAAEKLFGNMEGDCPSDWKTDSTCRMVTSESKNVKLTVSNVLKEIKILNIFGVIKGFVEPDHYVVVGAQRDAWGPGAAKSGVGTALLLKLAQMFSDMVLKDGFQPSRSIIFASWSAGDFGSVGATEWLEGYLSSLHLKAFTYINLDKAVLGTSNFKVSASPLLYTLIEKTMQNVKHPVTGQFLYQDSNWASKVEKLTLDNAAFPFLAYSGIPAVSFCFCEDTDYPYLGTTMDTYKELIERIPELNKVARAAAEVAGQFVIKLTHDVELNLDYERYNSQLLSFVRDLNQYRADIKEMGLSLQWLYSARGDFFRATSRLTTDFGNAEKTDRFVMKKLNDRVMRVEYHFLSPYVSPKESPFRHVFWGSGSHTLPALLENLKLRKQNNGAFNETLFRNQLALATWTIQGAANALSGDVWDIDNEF

B1: IgG:IDS fusion protein (anti-transferrin receptor antibody with an IDS enzyme linked to the C-terminus of each heavy chain) (antibody)
heavy: not shown
light: DIVMTQTPLSLSVTPGQPASISCRSSQSLVHSNGNTYLHWYLQKPGQSPQLLIYKVSNRFSGVPDRFSGSGSGTDFTLKISRVEAEDVGVYYCSQSTHVPWTFGQGTKVEIKRTVAAPSVFIFPPSDEQLKSGTASVVCLLNNFYPREAKVQWKVDNALQSGNSQESVTEQDSKDSTYSLSSTLTLSKADYEKHKVYACEVTHQGLSSPVTKSFNRGEC
modifications: formylglycine (fG) in place of the Cys in the IDS part in the form given as SEQ ID NO:18; glycans carry about 1.5-2.3 mol/mol M6P and about 15-16 mol/mol sialic acid per fusion protein
notes: Antibody-enzyme fusion with human IgG1 constant regions, expressed in ExpiCHO cells co-transfected with SUMF1
As a reminder, the EC50 (read off the curve) is the concentration at which the effect is half-maximal. For B1, the Kd in assay [1] is 2.6 nM; in assay [2], ~0.1 nM. In assay [3], the half-maximal effective concentration (EC50 (read off the curve)) was ~0.08 nM.
